From patent publication US20260216242A1 (ALMAC DISCOVERY, published 2026)
Substitutions are numbered along the chain they refer to. Numbers in names are those of the source.

Experiments:
[1] = biological target: T1, human ALPI (intestinal alkaline phosphatase) expressed on the surface of CHO cells (human, UniProt P09923 20-503); assay: cell-based or functional assay
T1 sequence (looked up): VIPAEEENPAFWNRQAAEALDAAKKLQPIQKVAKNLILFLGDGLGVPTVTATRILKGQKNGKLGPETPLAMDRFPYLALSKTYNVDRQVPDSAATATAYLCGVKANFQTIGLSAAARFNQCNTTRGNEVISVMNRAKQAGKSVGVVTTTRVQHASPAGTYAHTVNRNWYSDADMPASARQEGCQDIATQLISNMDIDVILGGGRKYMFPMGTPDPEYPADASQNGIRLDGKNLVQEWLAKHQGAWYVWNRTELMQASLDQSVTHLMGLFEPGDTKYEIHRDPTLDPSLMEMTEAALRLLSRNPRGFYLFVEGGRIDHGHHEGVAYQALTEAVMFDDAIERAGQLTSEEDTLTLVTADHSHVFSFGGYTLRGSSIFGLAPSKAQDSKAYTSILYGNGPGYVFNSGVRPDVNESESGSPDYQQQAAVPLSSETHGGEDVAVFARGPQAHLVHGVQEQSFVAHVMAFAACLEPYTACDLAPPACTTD

[2] = biological target: T2, human ALPP (alkaline phosphatase, placental type) expressed on the surface of CHO cells (human, UniProt P05187 23-506); assay: cell-based or functional assay
[3] = biological target: T3, human ALPL (tissue non-specific alkaline phosphatase) expressed on the surface of CHO cells (human, UniProt P05186 18-501); assay: cell-based or functional assay
T3 sequence (looked up): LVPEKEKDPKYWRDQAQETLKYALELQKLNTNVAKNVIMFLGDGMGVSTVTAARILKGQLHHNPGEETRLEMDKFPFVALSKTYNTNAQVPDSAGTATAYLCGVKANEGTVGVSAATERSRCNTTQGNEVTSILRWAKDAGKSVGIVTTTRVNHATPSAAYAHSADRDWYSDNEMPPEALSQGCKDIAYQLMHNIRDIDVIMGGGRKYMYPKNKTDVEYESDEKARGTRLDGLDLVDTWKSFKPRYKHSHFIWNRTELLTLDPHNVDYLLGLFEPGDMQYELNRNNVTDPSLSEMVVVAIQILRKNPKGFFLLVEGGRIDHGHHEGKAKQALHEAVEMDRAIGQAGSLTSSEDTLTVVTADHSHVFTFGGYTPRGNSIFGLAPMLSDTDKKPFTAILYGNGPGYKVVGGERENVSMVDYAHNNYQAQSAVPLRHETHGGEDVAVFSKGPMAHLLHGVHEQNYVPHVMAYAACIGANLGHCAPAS

[4] = biological target: T3, human ALPL (tissue non-specific …); assay: flow cytometry, CHO-ALPL cells
[5] = biological target: T1, human ALPI (intestinal alkaline …); assay: flow cytometry on CHO-ALPI cells
[6] = biological target: T4, human ALPPL2 (alkaline phosphatase, germ cell type) expressed on the surface of CHO cells (human, UniProt P10696 20-503); assay: flow cytometry on CHO-ALPPL2 cells, apparent KD (KDapp)
T4 construct: whole, on cells; The cell-surface form has none; also called CHO-ALPPL2; hALPPL2
Method: (§1) Biparatopic VHH-hFc drug conjugates were assessed for human ALPP, ALPPL2, ALPI and ALPL cell-surface binding by flow cytometry. Binders were screened on CHO cells stably expressing human ALPP, ALPPL2, ALPI or ALPL.
(§2) Cell surface binding of test agents to hALPP isoforms was characterized in four CHO-ALPP isoform transfectant cell lines (CHO-ALPP, CHO-ALPPL2, CHO-ALPI and CHO-ALPL) and the resulting KDapp values determined. Adherent cells were detached from tissue culture flasks by incubating with 0.1% EDTA/PBS solution at 37° C. for […] or until cells detached easily. Cells were re-suspended in ice-cold PBS/2% FCS in 15 ml tubes and centrifuged at 1700 rpm for 5 mins at 4° C. Supernatant was removed and the cell pellet re-suspended in PBS/2% FCS. […] Cells were incubated with 100 μl of test agents at a range of concentrations, plus controls for 1 hr on ice. The sample plate was centrifuged at 1700 rpm for 5 mins at 4° C. The supernatant was removed, and a wash performed by re-suspending the cell pellets in 0.25 mL of ice-cold PBS/2% FCS using a multichannel pipette. Samples were again centrifuged at 1700 rpm for 5 min at 4° C. Supernatant was removed and two further washes performed as described. After the final wash and centrifugation step, excess liquid was removed by blotting the plate on tissue paper. Binding of VHH-hFc agents was determined by adding 100 μl of Fitc-anti-human Ab (ThermoFisher) and incubating for 30 mins on ice in the dark. Wash steps were performed as described previously. All cell pellets were finally re-suspended in 0.28 ml of ice-cold PBS/2% FCS and left on ice in the dark prior to analysis on a Merck-Millipore Guava EasyCyte HT or Thermo Fisher Attune N×T flow cytometer.

[7] = biological target: T2, human ALPP (alkaline phosphatase, …); assay: flow cytometry on CHO-ALPP cells, apparent KD (KDapp)
Method: as §1, §2

[8] = biological target: T4, human ALPPL2 (alkaline phosphatase, …); assay: cell-based or functional assay
[9] = biological target: T1, human ALPI (intestinal alkaline …); assay: flow cytometry, CHO-ALPI cells

T4 sequence (P10696 20-503): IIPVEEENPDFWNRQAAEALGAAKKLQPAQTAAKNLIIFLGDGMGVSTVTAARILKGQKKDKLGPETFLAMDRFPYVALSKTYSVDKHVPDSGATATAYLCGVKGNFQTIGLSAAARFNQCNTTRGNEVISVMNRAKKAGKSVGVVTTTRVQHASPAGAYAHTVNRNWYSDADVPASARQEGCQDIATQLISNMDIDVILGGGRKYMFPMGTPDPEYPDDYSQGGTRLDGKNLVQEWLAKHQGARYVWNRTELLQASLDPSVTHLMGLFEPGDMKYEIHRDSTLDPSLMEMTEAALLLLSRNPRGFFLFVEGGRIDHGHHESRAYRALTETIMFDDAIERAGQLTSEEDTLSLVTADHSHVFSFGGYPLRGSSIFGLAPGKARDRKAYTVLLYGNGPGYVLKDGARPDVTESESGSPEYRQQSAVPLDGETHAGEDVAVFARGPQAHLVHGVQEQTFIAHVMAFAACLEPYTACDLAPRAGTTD
T2 sequence (P05187 23-506 limits assumed): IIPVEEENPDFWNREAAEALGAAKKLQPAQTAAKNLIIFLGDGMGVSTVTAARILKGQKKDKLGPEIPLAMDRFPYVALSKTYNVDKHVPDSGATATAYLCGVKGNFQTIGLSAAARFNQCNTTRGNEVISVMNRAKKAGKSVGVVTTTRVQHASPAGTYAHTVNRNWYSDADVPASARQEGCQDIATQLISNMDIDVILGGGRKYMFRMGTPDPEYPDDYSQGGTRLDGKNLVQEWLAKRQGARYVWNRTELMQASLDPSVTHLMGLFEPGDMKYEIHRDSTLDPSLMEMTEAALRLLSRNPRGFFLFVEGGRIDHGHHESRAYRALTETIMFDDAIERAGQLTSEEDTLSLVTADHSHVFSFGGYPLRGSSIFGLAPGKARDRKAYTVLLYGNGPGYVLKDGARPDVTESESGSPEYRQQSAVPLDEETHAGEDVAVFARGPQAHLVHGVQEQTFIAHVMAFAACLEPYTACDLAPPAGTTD

B1: D10 A06-hFc (S239/442C T366Y/Y407T), [G4S]1 linker, MC-vc-PAB-MMAE conjugate, #676 (Fc fusion, DAR 4)
chain 1: QVQLVESGGGLVQPGGSLRLSCAASGSIFSVNTMGWYRQAPGKQRDLVAVATSGGTIHYADSVKGRFTISRDNAKNTVYLQMNSLKPEDTAVYYCNLVVPYGMIAGDHDYWGQGTKVTVSSGGGGSEPKSSDKTHTCPPCPAPELLGGPCVFLFPPKPKDTLMISRTPEVTCVVVDVSHEDPEVKFNWYVDGVEVHNAKTKPREEQYNSTYRVVSVLTVLHQDWLNGKEYKCKVSNKALPAPIEKTISKAKGQPREPQVYTLPPSRDELTKNQVSLYCLVKGFYPSDIAVEWESNGQPENNYKTTPPVLDSDGSFFLYSKLTVDKSRWQQGNVFSCSVMHEALHNHYTQKSLCLSPGK
chain 2: QVHLVESGGGLVQAGGSLRLSCAASGRTFLSMGWFRQAPGKEREFVAAISWTGGSTGYADSVKGRFTISRESDKETMYLQMNSLKPEDTAVYYCAARGDVYYGGDDATRYKYWGQGTQVTVSSGGGGSEPKSSDKTHTCPPCPAPELLGGPCVFLFPPKPKDTLMISRTPEVTCVVVDVSHEDPEVKFNWYVDGVEVHNAKTKPREEQYNSTYRVVSVLTVLHQDWLNGKEYKCKVSNKALPAPIEKTISKAKGQPREPQVYTLPPSRDELTKNQVSLTCLVKGFYPSDIAVEWESNGQPENNYKTTPPVLDSDGSFFLTSKLTVDKSRWQQGNVFSCSVMHEALHNHYTQKSLCLSPGK
modifications: MC-vc-PAB-MMAE on Cys of S239C and S442C (EU numbering)
notes: Biparatopic knob-into-hole VHH-hFc heterodimer, DAR 4; The assignment of T366Y to the first named VHH and Y407T to the second follows the order of the name; No paragraph spells out this pair; also called D10-A06-hFc-vcPAB-MMAE; D10-A06 hFc-vc-MMAE
IC50 at 96 h, cell-killing of CHO-ALPI cells [1]: > 1000 nM
IC50 at 96 h, cell-killing of CHO-ALPP cells [2]: 5 nM
IC50 at 96 h, cell-killing of CHO-ALPL cells [3]: > 1000 nM
binding result [4]: no binding (tested: 350 nM (highest concentration))
MFI on CHO-ALPI cells at 350 nM as percent of MFI on CHO-ALPP cells (KDapp not-determinable) [5]: ≤ 1%
Kd [6]: 5 nM
Kd [7]: 14.4 nM

B2: D10 E10-hFc (S239/442C T366Y/Y407T), [G4S]1 linker, MC-vc-PAB-MMAE conjugate, #678 (Fc fusion, DAR 4)
chain 1: B1 chain 1
chain 2: QVQLVESGGGLVQAGGSLRLSCAVSGRALSDYNIGWFRQAPGKEREFVARKTWDGSSTRYDDSVKGRFTVSIEDAKNTAYLQMSSLKTEDTAVYYCAAGRYSRARGWEYDYWGQGTQVTVSSGGGGSEPKSSDKTHTCPPCPAPELLGGPCVFLFPPKPKDTLMISRTPEVTCVVVDVSHEDPEVKFNWYVDGVEVHNAKTKPREEQYNSTYRVVSVLTVLHQDWLNGKEYKCKVSNKALPAPIEKTISKAKGQPREPQVYTLPPSRDELTKNQVSLTCLVKGFYPSDIAVEWESNGQPENNYKTTPPVLDSDGSFFLTSKLTVDKSRWQQGNVFSCSVMHEALHNHYTQKSLCLSPGK
modifications: MC-vc-PAB-MMAE on Cys of S239C and S442C (EU numbering)
notes: Biparatopic knob-into-hole VHH-hFc heterodimer, DAR 4; also called D10-E10-hFc-vcPAB-MMAE; D10-E10 hFc-vc-MMAE
IC50 at 96 h, cell-killing of CHO-ALPI cells (estimated from data extrapolation) [1]: ~972 nM
IC50 at 96 h, cell-killing of CHO-ALPPL2 cells [8]: 12.8 nM
IC50 at 96 h, cell-killing of CHO-ALPL cells [3]: > 1000 nM
binding result [4]: no binding (tested: 350 nM (highest concentration))
Kd [6]: 5 nM
Kd [7]: 6.9 nM
binding result [9]: no binding (tested: 350 nM (highest concentration))

B3: D10 F05-hFc (S239/442C T366Y/Y407T), [G4S]1 linker, MC-vc-PAB-MMAE conjugate, #679 (Fc fusion, DAR 4)
chain 1: B1 chain 1
chain 2: B2 chain 2 with V24A, L29F, S30G, K51R, E73D, D74N, S84N, A104V
modifications: MC-vc-PAB-MMAE on Cys of S239C and S442C (EU numbering)
notes: Biparatopic knob-into-hole VHH-hFc heterodimer, DAR 4; also called D10-F05-hFc-vcPAB-MMAE; D10-F05 hFc-vc-MMAE
IC50 at 96 h, cell-killing of CHO-ALPI cells [1]: > 1000 nM
IC50 at 96 h, cell-killing of CHO-ALPPL2 cells [8]: 16.1 nM
IC50 at 96 h, cell-killing of CHO-ALPL cells [3]: > 1000 nM
binding result [4]: no binding (tested: 350 nM (highest concentration))
Kd [6]: 5.2 nM
Kd [7]: 6.6 nM
binding result [9]: no binding (tested: 350 nM (highest concentration))
